The results in this text go back to patent US20090202562A1 (Biogen, published 2009).

What is called Kd is the constant that tells how readily two partners part at equilibrium. What is called EC50 is the concentration that produces a half-maximal response. The low end stands for an effect from little substance, the high end for a need for much substance.

One assay addresses T1, murine GFRalpha3 (murine, UniProt O35118 29-371).
T1 construct: also called murine GFRalpha3 on NB41A3-L3 cells
T1 sequence: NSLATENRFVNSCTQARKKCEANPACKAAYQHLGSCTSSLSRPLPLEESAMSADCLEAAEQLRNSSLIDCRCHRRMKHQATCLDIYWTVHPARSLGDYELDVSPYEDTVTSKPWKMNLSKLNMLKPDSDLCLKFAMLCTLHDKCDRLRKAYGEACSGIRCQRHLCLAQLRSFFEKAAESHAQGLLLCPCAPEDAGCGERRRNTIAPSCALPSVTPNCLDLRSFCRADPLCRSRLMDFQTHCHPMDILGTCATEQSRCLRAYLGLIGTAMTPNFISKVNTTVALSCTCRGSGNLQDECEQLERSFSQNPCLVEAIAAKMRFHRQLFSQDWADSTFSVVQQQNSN
In words: Neublastin competition binding on NB41A3-L3 cells (murine GFRalpha3 plus endogenous murine Ret): 0-10 uM rat Neublastin for 10 min at 4 C, unoccupied GFRalpha3 probed with 10 ug/ml biotinylated MOR02683, FACS with PE-Streptavidin, hyperbolic fit. The method, then: NB41A3-L3 cells were incubated with different concentrations of rat Neublastin for 10 minutes at 4° C. During the incubation period, the binding reaction of Neublastin to GFRalpha3 and Ret on the cell surface reaches equilibrium. Cells were then quenched with a high concentration (10 ug/ml) of biotinylated MOR02683 for 2 minutes. MOR02683 can only bind to GFRalpha3 receptors that are not already occupied by Neublastin and thus acts as a probe for unoccupied GFRalpha3 receptors. During the short incubation time of the quenching reaction, no re-equilibration between Neublastin and MOR02683 binding occurs. The amount of MOR02683 bound to GFRalpha3 was then quantified via FACS analysis using PE-Streptavidin as a secondary reagent.
Neublastin competition binding was used to measure Neublastin binding affinities to receptors on the cell surface. NB41A3-L3 cells were incubated with 0-10 uM rat Neublastin for 10 minutes at 4° C. Cells were then quenched with 10 ug/ml biotinylated MOR02683 for 2 minutes. The amount of MOR02683 bound to GFRalpha3 was quantified by FACS using PE-Streptavidin as a secondary reagent. […] A Neublastin concentration-dependent reduction in the subsequent binding of MOR02683 was observed, but not with the control antibody MOR02682 (FIG. 8).

For a further assay, the target named is T2, rat GFRalpha3 (rat, UniProt O35118 29-370 (mouse entry)).
T2 construct: Expressed on transiently transfected HEK 293 EBNA cells; also called RetL3
T2 chain: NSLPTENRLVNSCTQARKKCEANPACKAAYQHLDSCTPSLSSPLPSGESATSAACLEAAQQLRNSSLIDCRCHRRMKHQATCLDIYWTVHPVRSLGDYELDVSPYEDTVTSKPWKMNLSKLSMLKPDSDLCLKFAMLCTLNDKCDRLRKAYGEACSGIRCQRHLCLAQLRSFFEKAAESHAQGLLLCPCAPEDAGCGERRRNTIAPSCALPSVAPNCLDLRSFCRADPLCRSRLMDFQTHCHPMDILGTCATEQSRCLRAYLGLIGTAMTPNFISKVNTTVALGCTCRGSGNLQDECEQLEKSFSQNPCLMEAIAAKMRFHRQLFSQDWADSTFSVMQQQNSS
Put plainly: FACS. On the technique in general: A flow cytometer gives signals particle by particle.

A further assay concerns the target T3, rat GFRalpha1 (rat, UniProt Q62997 25-430).
T3 construct: whole, on cells; Expressed on transiently transfected HEK 293 EBNA cells
T3 sequence (looked up): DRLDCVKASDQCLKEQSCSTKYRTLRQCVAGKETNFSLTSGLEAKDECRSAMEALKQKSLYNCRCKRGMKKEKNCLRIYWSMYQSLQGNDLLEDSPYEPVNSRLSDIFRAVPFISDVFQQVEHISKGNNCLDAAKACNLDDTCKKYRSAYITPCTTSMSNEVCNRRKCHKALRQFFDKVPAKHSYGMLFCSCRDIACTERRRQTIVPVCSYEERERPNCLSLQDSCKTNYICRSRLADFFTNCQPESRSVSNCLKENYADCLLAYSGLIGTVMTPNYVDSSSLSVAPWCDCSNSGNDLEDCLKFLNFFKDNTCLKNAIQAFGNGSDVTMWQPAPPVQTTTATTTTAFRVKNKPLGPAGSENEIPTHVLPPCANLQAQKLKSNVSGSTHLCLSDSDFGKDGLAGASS
In words: FACS on transiently transfected HEK 293 EBNA cells. The method, then:
(§1) HEK 293 EBNA cells were transiently transfected with an empty vector, a vector encoding rat GFRalpha1, a vector encoding rat GFRalpha2, or a vector encoding rat GFRalpha3. These cells were stained with 10 ug/ml of the anti-GFRalpha3 polyclonal antibody R11 (a rabbit polyclonal antibody generated by immunization with the peptide […] (SEQ ID NO:14), which contains a murine GFRalpha3 sequence and a heterologous GC sequence at its carboxy terminus) or with 10 ug/ml MOR02683. The vector-transfected cells shifted slightly above the unstained baseline because the HEK 293 EBNA cells endogenously expresses GFRalpha3 (FIGS. 2A and 2B). […] The lack of shift of the GFRalpha1-transfected cells and GFRalpha2-transfected cells as compared to vector-transfected cells indicated the specificity of MOR02683 for GFRalpha3 over its close family members (FIGS. 2A and 2B).

The target in a further assay is T4, rat GFRalpha2 (rat, UniProt O35977 22-444).
T4 construct: whole, on cells; Expressed on transiently transfected HEK 293 EBNA cells
T4 sequence: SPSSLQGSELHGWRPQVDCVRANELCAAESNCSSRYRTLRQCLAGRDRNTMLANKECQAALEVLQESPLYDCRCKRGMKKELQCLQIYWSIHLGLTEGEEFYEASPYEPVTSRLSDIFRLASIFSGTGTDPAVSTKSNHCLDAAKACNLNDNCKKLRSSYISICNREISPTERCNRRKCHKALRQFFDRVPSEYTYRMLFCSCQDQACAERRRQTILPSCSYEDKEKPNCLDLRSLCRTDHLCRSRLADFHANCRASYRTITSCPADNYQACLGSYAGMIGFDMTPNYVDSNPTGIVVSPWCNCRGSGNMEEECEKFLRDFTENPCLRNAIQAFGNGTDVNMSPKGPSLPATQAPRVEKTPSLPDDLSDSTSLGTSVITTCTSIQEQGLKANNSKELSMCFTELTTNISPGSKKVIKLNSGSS
In words: FACS on transiently transfected HEK 293 EBNA cells. The method, then: as §1

A further assay addresses murine GFRalpha3-Ig (murine). In words: inhibition of Neublastin-GFRalpha3-Ret ternary complex formation: MOR02683 preincubated with 1 ug/ml murine GFRalpha3-Ig, 50 ng/ml rat Neublastin and rat Ret-AP conditioned media; capture on an anti-human Fc plate; AP chemiluminescence. The method, then: MOR02683 was preincubated with 1 ug/ml murine GFRalpha3-Ig ([…] […] […] […] […] […] […] […] […] […] […] […]; SEQ ID NO:19) and 50 ng/ml rat Neublastin (113 amino acid form; […] […] TACGCLG; SEQ ID NO:20) in rat Ret-alkaline phosphatase ([…] […] […] […] […] […] […] […] […] […] […] […] […] […] […] […] […] […] […] […] […] […]; SEQ ID NO:21) conditioned media for an hour before being added to the coated plate for another hour. The alkaline phosphatase (AP) was visualized with a chemiluminescent substrate and the plate was read on a luminometer.

B1: rat Neublastin (113 amino acid form) (ligand)
chain: AGTRSSRARATDARGCRLRSQLVPVSALGLGHSSDELIRFRFCSGSCRRARSPHDLSLASLLDAGALRSPPGSRPISQPCCRPTRYEAVSFMDVNSTWRTVDHLSATACGCLG
On to B1, for which the Kd with murine GFRalpha3 is roughly 200 nM.

B2: Fab fragment MOR02683 (Fab, V domains shown)
VH: QVQLVESGGGLVQPGGSLRLSCAASGFTFSNYTMHWVRQAPGKGLEWVSVISYDGSSTYYADSVKGRFTISRDNSKNTLYLQMNSLRAEDTAVYYCARIVRMDIWGQGTLVTVSS
VL: DIVLTQSPATLSLSPGERATLSCRASQSVNSHYLAWYQQKPGQAPRLLIYGASNRATGVPARFSGSGSGTDFTLTISSLEPEDFATYYCQQMDGFPFTFGQGTKVEIKR
notes: From the HuCAL GOLD Fab phage display library; also called anti-GFRalpha3 Fab fragment MOR02683
As to B2, the binding result with rat GFRalpha3 is on record as “binds”; in the assay with rat GFRalpha1, “no binding (tested: 10 ug/ml)”; with rat GFRalpha2, “no binding (tested: 10 ug/ml)”. The EC50 in the assay with murine GFRalpha3-Ig is roughly 0.25 µg/mL.
